Measurements as given in the DeepSol protein solubility set.

assay: soluble on expression in E. coli; label from the status in PepcDB or PDB records

Q: With “MMTRLPLGATLPDFPWDSLADAKKTASSHPDGLINLSVGSPVDEVAPGIRLALAEAAAAPGYPQTIGTQELRAAIVDSLQRRYHATSLGGVLPVVGTKEAIALLPTLLGIRGTVVIPEVAYPTYEVGALMAGATPLRCDAPHELPNDDIDLVFINSPSNPTGRVASVEELRSIVAWAQANDVIVASDECYLGLAWDGEAVSILDPRVNDGNLSNLLAIHSLSKSSNLASYRAGFLAGDEALIAELTEIRKHSGLMVPGPIQAAMVEALRDDDQEALQKLRYARRRALLMRALIDAGFTVEHSEAGLYLWATRGENCRATVDWFASHGILVAPGDFYGPDAHNFVRVALTTTDDNAEKVAARLQKGN” as the sequence, how does the “soluble on expression in E. coli” value read?
A: The value was “soluble”.

Q: With “MMVVNIKMQQMKSQFIQYNDSNNKVLYQKCKPVADIQNAEIQNIITEMHEKMQGNGIGLAANQIGYPYQIFMIEFDSSNARYPFSFDSVPYQVFINPKITKASKQRVSFWHGCLSALGEKRGKLATYKEIEYEAYNQHGEKITGKLDSIAAIIFQHEFNHLLGSVYVDFDTEYIDNEELQAKFASGELKPYQECGEEVPLLLEKYQIGKNI” as the sequence, how does the “soluble on expression in E. coli” value read?
A: Its value is “not soluble”.

Q: Which “soluble on expression in E. coli” value does the source give for “MMWIPYNQGFHAGPKCLTVVFIYLLNMKVLRHIYRFLMELYGPQGWWPLLDRDTMTLRYHPGDYTPPSDDGDVFEVITGSILTQNTSWDSAASALRNLAAMDALKPHRILSLDDAELEAAIRCAGFYRQKVSYLREMAGFFISLEGSTPSRKELLKVRGVGPETADSVLLYAYRKPEFVVDAYTRRILTHLGLIAGDESYHRIKELFERSLEPDFRVFQEYHALIVRHGKSYYRGRVHGDGDPLTEKLEHHHHHH” here?
A: Its value is “not soluble”.

Q: For “MNAILHDMAVPFYKPVSNECSLFEAASRKGLPLLLKGPTGCGKTRFVEHMAARMGRKLYTVACHDDLSAADLIGRYLLKGGATEWVDGPLTRAVREGAICYLDEVVEARKDVTVVLHPLTDNRRTLMIDRTGEELVAPPGFMLVASYNPGYQNILKRLKPSTRQRFLSIGFTFPDPVTETAVVARESGLSEAKVAPLVRLAGHVRALSGMDLEEGVSTRLLVYAASLMAGGMSIEAALEAAVIEPLTDEPDVAQALRDLIATVYGLEHHHHHH”, which “soluble on expression in E. coli” value is on record?
A: The value was “not soluble”.

Q: For “MNAPIEPHRFILEPFEAHRFANLCGQFDEHLRLIEQRLAIEIRNRGNQFELIGEPRTTSAAEQLLRRLYRETKATDLSPETVHLYLQESAVENIDNPAVNEVSVSLRTRKGNIRPRGLNQQRYVKEILANDINFGIGPAGTGKTYLAVACAVDALEREQVRRILLVRPAVEAGEKLGFLPGDLAQKIDPYLRPLYDALYEMLGFEHVAKLIERQVIEIAPLAYMRGRTLNNSFIILDESQNTTLEQMKMFLTRIGFGSTAVITGDITQVDLPRGTKSGLAHVIEVLKDVPGISFTHFQPKDVVRHPLVQRIVEAYDRFEARQPKPEASGKDA”, which “soluble on expression in E. coli” value is on record?
A: Its value is “not soluble”.

Q: With “MNAVTEGRKVLLEIADLKVHFEIKDGKQWFWQPPKTLKAVDGVTLRLYEGETLGVVGESGCGKSTFARAIIGLVKATDGHVAWLGKELLGMKPDEWRAVRSDIQMIFQDPLASLNPRMTIGEIIAEPLRTYHPKMSRQEVRERVKAMMLKVGLLPNLINRYPHEFSGGQCQRIGIARALILEPKLIICDEPVSALDVSIQAQVVNLLQQLQREMGLSLIFIAHDLAVVKHISDRVLVMYLGHAVELGTYDEVYHNPLHPYTRALMSAVPIPDPDLEKNKTIQLLEGELPSPINPPSGCVFRTRCPIAGPECAKTRPVLEGSFRHAVSCLKVDPL” as the sequence, how does the “soluble on expression in E. coli” value read?
A: The value was “not soluble”.

Q: With “MNCREGCGACCIAPSISTPIPGMPQGKPAGERCLHLSVEHLCGLFGLPERPAVCGAFLADPEVCGESREEAIRLIGWWEQVTAALEHHHHHH” as the sequence, how does the “soluble on expression in E. coli” value read?
A: The value was “not soluble”.

Q: For “MNDIAHNLAQVRDKISAAATRCGRSPEEITLLAVSKTKPASAIAEAIDAGQRQFGENYVQEGVDKIRHFQELGVTGLEWHFIGPLQSNKSRLVAEHFDWCHTIDRLRIATRLNDQRPAELPPLNVLIQINISDENSKSGIQLAELDELAAAVAELPRLRLRGLMAIPAPESEYVRQFEVARQMAVAFAGLKTRYPHIDTLSLGMSDDMEAAIAAGSTMVRIGTAIFGARDYSKK”, which “soluble on expression in E. coli” value is on record?
A: Its value is “soluble”.

Q: For “MNEAEQELYEALVAICQTSGFLLLEELPTDLPDQPFVYLGDSKELPKPTKSAILGEIELIMHVYGALSERQQISTIKGTILRQATSNLKRTAHFNWGIKHQEVKAQMVKDTKQMKKTIWHAVLPLHMQFY”, which “soluble on expression in E. coli” value is on record?
A: Its value is “not soluble”.

Q: For “MNEIKLKYDTQVSVVHYESLDSRSFKSFSMPKWSKLVNKLSVPIEANYKYARGVAVYGDIKDNTNDHGEIIKKHRNDKNVIYRNVIVLDYDEINDVKQLHDAISSVLSSVAWYWHTSFSHTTEQARIRLYIPLNERISADDYRKYTKVLANKIGHKVDEGSYQPSRCFALPVIQKGHIFIKRVNDCPIMDVDMLEQWSKEYKQSNGSPNIKGYTRRDSAYWRDIAFGVSEGERNSTLASITGYLLRRYVDPNLVYGLVSAWASVCKPPINQSEVNNTFKSILKKDSKNS”, which “soluble on expression in E. coli” value is on record?
A: Its value is “not soluble”.

Q: For “MNEKVFRDPVHNYIHVNNQIIYDLINTKEFQRLRRIKQLGTSSYTFHGGEHS”, which “soluble on expression in E. coli” value is on record?
A: The value was “soluble”.

Q: Which “soluble on expression in E. coli” value does the source give for “MNELKNAQTASAHRILLPLLRCIASGAADVTEEGNEIVLRRKRPGQAVQRFPTETVRLAVSSGLLEWRQNSLSAAPPLASYLKRATAKDRDEVFQEQHRDIQTVVVEIDETKQPARRNLNTAPLTSLSRLKERDGSAFFPEDALAAGERLAADFHRGHLNPRVTATWEPRIASRGKGEAGGALDLTEAAMAARARFSRAADAMGPELSGVAIDICCFEKGLETVERERLWPARSAKLLLRAALLSLARHYAPPVPPARGKDRPKERHWGDADYRPSLR” here?
A: The value was “not soluble”.

Q: Which “soluble on expression in E. coli” value does the source give for “MNELVSIITPCYNSAATIRETIRSVIAQSYVNWELLIIDDCSNDDSVKIIMEFMDTDSRIYYLKTEHPSGGPTLPRNVGIQAAKGRFIAFLDSDDIWLPNKLSTQLPLFINDNVAIVYSDYEKISEEGNRTGRIVKSDPYHHYKSLLCGNELGCLTVVYDTQKIGKRYFKFIGHEDYNLWLDILKEGFIAINTNICLALYRIRKGSVSSNKLRVIKWIWHIYRVEQKKTIWLSLYYSLSDLNKSLFKYLKLEHHHHHH” here?
A: The value was “soluble”.

Q: For “MNEPSACSGPPVKSKSSKNEPFYTLKALLPPYSEIQGNHDLLMSYELGPVEGGFSGSRRVKEKISSFLPHIIGEFHLDATKEASSLRALIEKPPIHKEISNLTSSSMQGFKLSAGPVDERYRHLFERRKEEPNLAYSEKLNLIRVRQQYDAYGFDDDETEKGFPKKHKKKKKDKKRKKEKEELGDAEKRKRAADEPMEF”, which “soluble on expression in E. coli” value is on record?
A: Its value is “not soluble”.

Q: For “MNEYAPLRLHVPEPTGRPGCQTDFSYLRLNDAGQARKPPVDVDAADTADLSYSLVRVLDEQGDAQGPWAEDIDPQILRQGMRAMLKTRIFDSRMVVAQRQKKMSFYMQSLGEEAIGSGQALALNRTDMCFPTYRQQSILMARDVSLVEMICQLLSNERDPLKGRQLPIMYSVREAGFFTISGNLATQFVQAVGWAMASAIKGDTKIASAWIGDGATAESDFHTALTFAHVYRAPVILNVVNNQWAISTFQAIAGGESTTFAGRGVGCGIASLRVDGNDFVAVYAASRWAAERARRGLGPSLIEWVTYRAGPHSTSDDPSKYRPADDWSHFPLGDPIARLKQHLIKIGHWSEEEHQATTAEFEAAVIAAQKEAEQYGTLANGHIPSAASMFEDVYKEMPDHLRRQRQELGV”, which “soluble on expression in E. coli” value is on record?
A: The value was “soluble”.

Q: Which “soluble on expression in E. coli” value does the source give for “MNFIIEPGSLADIDELERLYDELNDHLSATINYPGWIKGIYPVRENAAAGVDDNSLFVARCDGRIAGSVILDHQPEKAYENIVWKIDADYSYIFVVRTFVVHPSFLQMGVGHALMDFSLELALKSEMKSIRLDVYEKNLPAISLYEKCGFEYIDTVDLGLGHYGLDWFKLYEKVILEHHHHHH” here?
A: Its value is “soluble”.

Q: Which “soluble on expression in E. coli” value does the source give for “MNFLRKIVKNCKDEEIPKPGTPSAPPDDDDLWMPPPEYVPLTQIKGKENVRNFCINGEIKICSPNGYSFRILRHILKSFDNVYSGNRRLIGVVKVVIGLVLSASPVPEGMNWVYKLRRTLIFQWAESHGPLEGEELEYSQEITWDDEAEFVSLQIRVSAKQCHIQGRLWCINMNSKACQLWADMGLKTQQSQEDENTSLLLE” here?
A: The value was “soluble”.

Q: For “MNGAELIIQEINKEAERKIEYILNEARQQAEKIKEEARRNAEAKAEWIIRRAKTQAELEKQRIIANARLEVRRKRLAIQEEIISSVLEEVKRRLETMSEDEYFESVKALLKEAIKELNEKKVRVMSNEKTLGLIASRIEEIKSELGDVSIELGETVDTMGGVIVETEDGRIRIDNTFEARMERFEGEIRSTIAKVLFG”, which “soluble on expression in E. coli” value is on record?
A: Its value is “soluble”.

Q: Which “soluble on expression in E. coli” value does the source give for “MNGGGKNVLNKNSVGSVSEVGPDSTQEETPRDVRLLHLLLASQSIHQYEDQVPLQLMDFAHRYTQGVLKDALVYNDYAGSGNSAGSGLGVEDIRLAIAARTQYQFKPTAPKELMLQLAAERNKKALPQVMGTWGVRLPPEKYCLTAKEWDLEDPKSM” here?
A: Its value is “not soluble”.

Q: With “MNGTRNWCTLVDVHPEDRAAGSVDILRLTLQGEPTGDELEHIAQKAGRKTYAMVSSHSAGHSLASELVESHDGHEEIIKVYLKGRSGDKMIHEKNINQLKSEVQYIQEARNCLQKLREDISSKLDRNLGDSLHRQEIQVVLEKPNGFSQSPTALYSSPPEVDTCINEDVESLRKTVQDLLAKLQEAKRQHQSDCVAFEVTLSRYQREAEQSNVALQREEDRVEQKEAEVGELQRRLLGMETEHQALLAKVREGEVALEELRSNNADCQAEREKAATLEKEVAGLREKIHHLDDMLKSQQRKVRQMIEQLQNSKAVIQSKDATIQELKEKIAYLEAENLEMHDRMEHLIEKQISHGNFSTQARAKTENPGSIRISKPPSPKPMPVIRVVET” as the sequence, how does the “soluble on expression in E. coli” value read?
A: Its value is “soluble”.

Q: For “MNHFELYKLKKAGLTNKNILNILDYQKHQEKSLSLRDMAVVSGCKHPSHFIEAYKQLDIQNLKMEFKQFPSISILDKHYPMALKEIYNPPVLLFFQGNLDLLEKPKLAIVGSRRSSDTGVKSVRKILKELGNRFVIVSGLARGIDTSAHLACLKNGGQTIAIIGTGLDRFYPKENRELQTFLGKNHLVLTEYGPGEEALSYHFPERNRIIAGLSRGILVVEAKNRSGSLITCQIGIEEGRDIFAVPGNILDGKSEGCLQLIKEGATCVTSGMDILSEY”, which “soluble on expression in E. coli” value is on record?
A: Its value is “not soluble”.

Q: For “MNIFDHYRQRYEAAKDEEFTLQEFLTTCRQDRSAYANAAERLLMAIGEPVMVDTAQEPRLSRLFSNRVIARYPAFEEFYGMEDAIEQIVSYLKHAAQGLEEKKQILYLLGPVGGGKSSLAERLKSLMQLVPIYVLSANGERSPVNDHPFCLFNPQEDAQILEKEYGIPRRYLGTIMSPWAAKRLHEFGGDITKFRVVKVWPSILQQIAIAKTEPGDENNQDISALVGKVDIRKLEHYAQNDPDAYGYSGALCRANQGIMEFVEMFKAPIKVLHPLLTATQEGNYNGTEGISALPFNGIILAHSNESEWVTFRNNKNNEAFLDRVYIVKVPYCLRISEEIKIYEKLLNHSELTHAPCAPGTLETLSRFSILSRLKEPENSSIYSKMRVYDGESLKDTDPKAKSYQEYRDYAGVDEGMNGLSTRFAFKILSRVFNFDHVEVAANPVHLFYVLEQQIEREQFPQEQAERYLEFLKGYLIPKYAEFIGKEIQTAYLESYSEYGQNIFDRYVTYADFWIQDQEYRDPDTGQLFDRESLNAELEKIEKPAGISNPKDFRNEIVNFVLRARANNSGRNPNWTSYEKLRTVIEKKMFSNTEELLPVISFNAKTSTDEQKKHDDFVDRMMEKGYTRKQVRLLCEWYLRVRKSS”, which “soluble on expression in E. coli” value is on record?
A: The value was “soluble”.
